Measurements published in patent publication US20230032087A1.

Target: CD19 on KILR Raji cells (UniProt P15391)
Assay: cell-based or functional assay

CD19 on KILR Raji cells, sequence (P15391 20-556 limits assumed): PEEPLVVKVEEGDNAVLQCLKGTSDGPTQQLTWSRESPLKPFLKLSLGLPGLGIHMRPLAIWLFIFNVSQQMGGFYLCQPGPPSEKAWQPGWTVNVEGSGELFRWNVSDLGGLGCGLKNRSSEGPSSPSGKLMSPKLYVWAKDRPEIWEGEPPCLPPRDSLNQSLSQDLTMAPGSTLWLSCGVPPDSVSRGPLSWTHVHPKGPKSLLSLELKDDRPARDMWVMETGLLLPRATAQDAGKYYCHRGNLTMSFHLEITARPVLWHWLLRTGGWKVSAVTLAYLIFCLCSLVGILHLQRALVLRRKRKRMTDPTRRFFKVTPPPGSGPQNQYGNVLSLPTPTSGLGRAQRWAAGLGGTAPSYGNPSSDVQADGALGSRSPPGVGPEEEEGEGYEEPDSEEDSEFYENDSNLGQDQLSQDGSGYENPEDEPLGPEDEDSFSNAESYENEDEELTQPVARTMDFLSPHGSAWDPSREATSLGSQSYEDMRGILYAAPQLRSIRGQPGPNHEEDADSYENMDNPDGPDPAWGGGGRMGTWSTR

blinatumomab (bispecific antibody)
EC50 of T cell-redirected killing of KILR Raji cells, +HSA (15 mg/mL): 10.8 ng/mL | EC50 of T cell-redirected killing of KILR Raji cells, -HSA: 2.85 ng/mL
